Test results published in publication PMC8514580, “Insight into the interaction between the RNA helicase CGH-1 and EDC-3 and its implications” (Scientific Reports, 2021).
“Also recorded” adds a separate entry of the source.

Assays:
[1] = target: CAR-1 184-214 (Caenorhabditis elegans) (UniProt Q9XW17); experiment: ITC; conditions: cited from earlier work
[2] = test system: 4A mutant of CGH-1_248–420; experiment: GST-pulldown of CGH-1_248–420 4A mutant; assay type: binding, C. elegans; conditions: PBS, ~100 μg GST protein, ~50 μg CGH-1 4A, 2 h, 12% SDS-PAGE
Procedure: (§1) The cDNA encoding a fragment of C. elegans EDC-3 (residues 230–566) plus a C-terminal His6 tag was synthesized by Sangon Biotech (Shanghai, China) Co., Ltd. The DNA fragment was then cloned into a pGEX-4T-1 expression vector using restriction enzymes BamHI and XhoI, and finally confirmed by DNA sequencing.
(§2) To test if GST-tagged EDC-3 can pulldown CGH-1 protein, about 100 μg protein, GST alone or GST-EDC-3_230–566, was incubated with GST resin (GE Healthcare) in PBS for 1 h. The resin was then washed three times with the same buffer. Subsequently, the resin was incubated with ~ 50 μg recombinant CGH-1_248–420 protein or its 4A mutant in the same buffer for 2 h. The resin was then washed five times using the same buffer. The captured proteins in resin were finally heated and analyzed using 12% SDS-PAGE.

CGH-1_248–420 = experiment: GST-pulldown of CGH-1_248–420 WT; assay type: binding, C. elegans; conditions: PBS, ~100 μg GST protein, ~50 μg CGH-1, 2 h, 12% SDS-PAGE
Procedure: as §1, §2

human HA-tagged DDX6 = conditions: Co-immunoprecipitation, YFP-tagged PATL1 mutants; cited from earlier work
CGH-1_248-420^F355A = CGH-1_248-420^F355A (Caenorhabditis elegans, UniProt Q95YF3, F355A); design: the cDNA fragments encoding CGH-1 RecA2 (residues 248–420); made in house; host or cells: E. coli Gold (DE3); conditions: ITC, CGH-1 F355A vs WT; cited from earlier work
Text: We recently identified a highly conserved FDF (Phe-Asp-Phe) motif between beta-strand 12 and alpha-helix 13 in CGH-1 RecA2 domain but the function is currently unclear (Fig. 1B)[17]. Mechanistically, Phe355 in CGH-1 may mediate hydrophobic interaction with Thr266 in the TFG motif of CAR-1 and a mutation of Phe355 to Ala (F355A) in CGH-1 decreased the binding affinity by a factor of approximate 5 as measured by ITC assay. Since PATR-1N-terminus has also a TFG motif, we hypothesize that PATR-1 may also interact with CGH-1 via similar binding mechanism (Supplementary Fig. S3B and C). Striking ...

[3] = test system: CGH-1_248–420 binding to GST-EDC-3_230–566; experiment: GST-pulldown competition, CGH-1_248–420 binding to GST-EDC-3_230–566; design: species or system C. elegans; conditions: PBS, 2 h, same amount of CAR-1_184–268 and CGH-1_248–420 (50 μg)
Procedure: To investigate whether CAR-1_184–268 can affect CGH-1_248–420 binding to EDC-3_230–566, approximate 100 μg GST-tagged EDC-3_230–566 was incubated with GST resin, followed by three times of wash in PBS. The resin was then incubated with 50 μg CGH-1_248–420 in the absence or presence of the same amount of CAR-1_184–268 for 2 h, followed by five times of PBS wash, and captured proteins were finally analyzed as described above.
To investigate whether C. elegans PATR-1 peptide will affect the CGH-1 binding to GST-tagged EDC-3_230–566 protein, approximate 100 μg GST-tagged EDC-3_230–566 was incubated with GST resin, followed by three times of wash in PBS. The resin was then incubated with 50 μg CGH-1_248–420 without PATR-1 peptide (0 μM) or with varied concentration of PATR-1 peptide (12.5, 25, or 50 μM) for 2 h, and was washed five times in PBS. The captured proteins in resin were finally heated and analyzed using 12% SDS-PAGE.

CGH-1_248-420^WT = target: T1, CGH-1_248-420^WT (Caenorhabditis elegans, UniProt Q95YF3); experiment: ITC binding to CGH-1_248–420 WT; design: species or system C. elegans; conditions: ITC, 20 °C, pH 7.5, 150 mM NaCl; CGH-1_248–420 WT
T1 construct: the cDNA fragments encoding CGH-1 RecA2 (residues 248–420); made in house; host or cells: E. coli Gold (DE3)
T1 sequence (Q95YF3 248-420): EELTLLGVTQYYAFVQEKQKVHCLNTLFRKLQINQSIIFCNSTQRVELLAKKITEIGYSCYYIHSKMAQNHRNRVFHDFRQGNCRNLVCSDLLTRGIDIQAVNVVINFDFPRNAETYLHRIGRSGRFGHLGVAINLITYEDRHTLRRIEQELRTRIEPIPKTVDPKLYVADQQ
Procedure: Expression plasmids regarding CGH-1 and CAR-1 were constructed as previously described. In brief, the cDNA fragments encoding CGH-1 RecA2 (residues 248–420), CAR-1 FDF-TFG (residues 184–268) were amplified by PCR from C. elegans genome library and cloned into the NdeI and XhoI site of a modified pET-28a (Novagen) vector (p28a), in which a thrombin protease cleavage site was removed.
CGH-1 protein expression and purification were performed described as in our most recent paper. In brief, proteins were expressed in E. coli Gold (DE3) strain (Novagen). […] Cells were resuspended in Buffer A (20 mM Tris–HCl, pH 7.5, 1 M NaCl), and then lysed using high pressure at 4 °C. Proteins were initially purified by Ni-chelating resin (Qiagen), and further purified by size exclusion chromatography (SEC) on a Superdex 75 column (GE healthcare) in Buffer A. The purified proteins were dialyzed into Buffer B (20 mM Tris–HCl, pH 7.5, 150 mM NaCl).
A peptide containing the C. elegans EDC-3 FDF fragment (residues 235–271) and PATR-1 fragment (residues 30–67) were synthesized from GL Biochem (Shanghai, China) Co., Ltd, respectively. Stock solutions of peptide were prepared in Buffer B described above, and were adjusted to pH 7.5 ± 0.02 for subsequent experiments.
ITC assays were performed as previously described. In brief, it was carried out on a MicroCal PEAQ-ITC (Malvern) at 20 °C with the following settings: reference power, 5 μcal/s; initial delay, 60 s; stir speed, 750 rpm; spacing time, 120 s. Proteins (or its mutants) and peptides were adjusted to 0.05 mM and 0.5 mM, respectively. Experiments were initialed by injection of 1 μl each of peptide into the sample cell (200 μl) filled with protein (or its mutants) solution, followed by 18 injections of 2 μl. The ITC data were fitted with a one-binding-site model using the Origin analysis software.

Sequence of CGH-1_248-420^F355A (Q95YF3 248-420 F355A): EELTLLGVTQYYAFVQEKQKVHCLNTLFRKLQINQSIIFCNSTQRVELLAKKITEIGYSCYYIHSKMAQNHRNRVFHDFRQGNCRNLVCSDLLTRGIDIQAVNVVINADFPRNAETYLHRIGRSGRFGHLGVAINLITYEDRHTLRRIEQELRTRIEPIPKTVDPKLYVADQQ

For CGH-1 248-420 (from UniProt Q95YF3), the Kd [1] is given as 43 µM.

B1: GST-EDC-3_230–566: GST-tagged fragment of C. elegans EDC-3 (residues 230–566) plus a C-terminal His6 tag (protein)
chain: RNKNDLADPIDFDLDSDFDFAENLKLFEKDENDDQYYETVEKFKCSQNFAHYENIIDDENRVTSWTNLKARSELVKTGTTPQTSEKNNFRVTAVSFEKSIIGDPIPAISLNEKKEFLNECRVSLGEAVYDTIVADRIFQWVSEVQNSYGDAHGTVVLLASSANSVRSIRRLLTHFDKRRYNCHLFGKYPGEIFDHVNVVTDVKMLPREVPIICILSPVVNDDVECWLRAQSNGASSHYVCIENVPSVLEPSRCHLLQFGCATNGLRHAERKVQTINRGGITFEHLCQGKMHEETSSILVDSAIADLGSPSNWFDNTSSKFISTAFSTTFLVRLSQSN
modifications: left off: GST, end not stated, kept | His6, C-terminal, state not stated
notes: GST-tagged fragment of C. elegans EDC-3 (residues 230–566) plus a C-terminal His6 tag
With B1 the “amount of CGH-1 4A bound compared with wild-type” value [2] was “less amount” and the “interaction with CGH-1_248–420” value (CGH-1_248–420) was “can interact with CGH-1_248–420; also recorded: binds to CGH-1 RecA2 domain”.

B2: YFP-tagged PATL1 W46D: substitution of Trp46 to Asp in the YFP-tagged PATL1 (protein, UniProt Q86TB9 1-770, looked up, variant W46D)
Protein PAT1 homolog 1: MFRYESLEDCPLDEDEDAFQGLGEEDEEIDQFNDDTFGSGAVDDDDQEAHERLAELEEKLPVAVNEQTGNGERDEMDLLGDHEENLAERLSKMVIENELEDPAIMRAVQTRPVLQPQPGSLNSSIWDGSEVLRRIRGPLLAQEMPTVSVLEYALPQRPPQGPEDDRDLSERALPRRSTSPIIGSPPVRAVPIGTPPKQMAVPSFTQQILCPKPVHVRPPMPPRYPAPYGERMSPNQLCSVPNSSLLGHPFPPSVPPVLSPLQRAQLLGGAQLQPGRMSPSQFARVPGFVGSPLAAMNPKLLQGRVGQMLPPAPGFRAFFSAPPSATPPPQQHPPGPGPHLQNLRSQAPMFRPDTTHLHPQHRRLLHQRQQQNRSQHRNLNGAGDRGSHRSSHQDHLRKDPYANLMLQREKDWVSKIQMMQLQSTDPYLDDFYYQNYFEKLEKLSAAEEIQGDGPKKERTKLITPQVAKLEHAYKPVQFEGSLGKLTVSSVNNPRKMIDAVVTSRSEDDETKEKQVRDKRRKTLVIIEKTYSLLLDVEDYERRYLLSLEEERPALMDDRKHKICSMYDNLRGKLPGQERPSDDHFVQIMCIRKGKRMVARILPFLSTEQAADILMTTARNLPFLIKKDAQDEVLPCLLSPFSLLLYHLPSVSITSLLRQLMNLPQSAATPALSNPHLTAVLQNKFGLSLLLILLSRGEDLQSSDPATESTQNNQWTEVMFMATRELLRIPQAALAKPISIPTNLVSLFSRYVDRQKLNLLETKLQLVQGIR
modifications: YFP tag
In the case of B2, the “interaction with DDX6” value (human HA-tagged DDX6) is listed as “impaired the interaction”.

B3: CAR-1: CAR-1, construct of ref 17; TFG motif interacts with Phe355 of CGH-1 (protein, UniProt Q9XW17 1-340, looked up)
Protein LSM14 homolog car-1: MSNQTPYIGSKISLISKLDIRYEGILYTVDTNDSTIALAKVRSFGTEKRPTANPVAARDDVYEYIIFKASDIKDLIVCDTPKMANIGGGLPYDPAIISVSSRSAPASDGAPAASAGSSRAGTPSRNSPLGQIIQNQRPGRGGYQQNFQANRGYNNYRGGFAGGYNNQRGHNNYGVPRVNHREKLKFESDFDFEKANEKFQEVLVDNLEKLNIEDKAEPEVEEKKDAAFYDKKTSFFDNISCESLEKAEGKTGRPDWKKERETNQETFGHNAVRSLNYRRGFGGRGRGGNRGYGGYNNGYQHQHQHRGGYNGGYRQNNGGYRRGGYAPRDNQGNTAAAAEQ
In the case of B3, the “decrease of binding affinity, factor vs WT” value (CGH-1_248-420^F355A) is listed as about 5.

B4: CAR-1_184–268: recombinant CAR-1 FDF-TFG (residues 184–268) (protein)
chain: LKFESDFDFEKANEKFQEVLVDNLEKLNIEDKAEPEVEEKKDAAFYDKKTSFFDNISCESLEKAEGKTGRPDWKKERETNQETFG
modifications: left off: His tag (from the modified vector pET-28a), end not stated, state not stated
With B4 the “effect on binding of CGH-1_248–420 to EDC-3_230–566” value [3] was “little or no effect” and the “− TΔS” value (CGH-1_248-420^WT) was 19.6 kcal/mol.
